Values of other authors as cited in article PMC6239910.

Biological target: Ube2D3-Ub conjugate (Homo sapiens) (UniProt P61077)
Sequence (P61077 whole entry): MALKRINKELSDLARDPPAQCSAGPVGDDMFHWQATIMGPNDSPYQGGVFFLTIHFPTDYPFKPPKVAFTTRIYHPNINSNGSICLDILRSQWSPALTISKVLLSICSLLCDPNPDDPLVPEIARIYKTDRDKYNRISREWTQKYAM

UHRF1, sequence (Q96T88 whole entry): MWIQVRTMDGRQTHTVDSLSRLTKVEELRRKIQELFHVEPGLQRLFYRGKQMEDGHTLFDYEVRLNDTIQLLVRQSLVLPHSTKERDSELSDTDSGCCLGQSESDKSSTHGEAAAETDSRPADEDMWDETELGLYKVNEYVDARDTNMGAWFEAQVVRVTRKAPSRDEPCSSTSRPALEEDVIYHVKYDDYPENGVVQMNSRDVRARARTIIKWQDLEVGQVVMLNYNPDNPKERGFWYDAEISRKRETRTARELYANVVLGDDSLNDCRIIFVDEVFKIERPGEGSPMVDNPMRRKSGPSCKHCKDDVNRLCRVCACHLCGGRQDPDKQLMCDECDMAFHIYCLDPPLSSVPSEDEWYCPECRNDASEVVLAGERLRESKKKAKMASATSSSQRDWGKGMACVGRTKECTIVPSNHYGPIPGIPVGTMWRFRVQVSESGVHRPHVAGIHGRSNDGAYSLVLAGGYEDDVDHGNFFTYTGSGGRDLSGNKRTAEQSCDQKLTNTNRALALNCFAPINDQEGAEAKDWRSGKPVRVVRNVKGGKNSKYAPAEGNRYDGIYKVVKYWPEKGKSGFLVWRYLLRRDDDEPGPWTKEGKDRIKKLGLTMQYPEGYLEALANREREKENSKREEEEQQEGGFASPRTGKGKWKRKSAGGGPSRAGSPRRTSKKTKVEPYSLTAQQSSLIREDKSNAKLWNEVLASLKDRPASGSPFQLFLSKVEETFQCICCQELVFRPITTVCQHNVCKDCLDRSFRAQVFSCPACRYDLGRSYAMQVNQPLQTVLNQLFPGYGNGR

**Q.** With UHRF1 (from UniProt Q96T88) as the substance, how does the Kd read?
**A.** The Kd was 3.2 µM.
